Test results taken from the nanobody polyreactivity screen of Harvey et al. (2022).

Test: yeast display, Sf9 membrane polyspecificity reagent, FACS + sequencing; frameworks hold sequencing errors
Summary of the method: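 Galactose induction of a Saccharomyces cerevisiae BJ5465 synthetic nanobody display library ran 36–48 hours. The cells were then stained for 1 hour at 4 °C with 10% biotinylated, detergent-solubilized Sf9 membrane reagent, pulled down on streptavidin microbeads and FACS-sorted into low and high (top ~1%) gates on expression and reagent-binding fluorescence. Labels for polyreactivity follow the gate of origin.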
With “QVQLVESGGGLVQAGGSLRLSCAASGSTCFDYAMGWYRQAPGKERELVAAISRSGDTNYADSVKGRFTISRDNAKNTVYLQMNILKPEDTAVYYCAKDWAYRRHWVGFYYWGQGTQVTVSS” the “polyreactivity (PSR sort gate)” value was “low polyreactivity”.
In the case of “QVQLVESGGGLVQAGGSLRLSCAASGSTCVSNAMGWYRQAPGKERELVAAISSGDNTNYADSVKGRFTISRDNAKNTVYVQMNSLKPEDTAVYYCAARAYRWRSFSTMYYWGQGTQVTVST”, the “polyreactivity (PSR sort gate)” value is reported as “high polyreactivity”.
In the case of “QVQLVESGGGLVQAGGSLRLSCAASGSTFAAKAMGWYRHAPGKERELVAAITSSGGSTYYADSVKGRFTISRDNAKNTVYLQMNSLKPEDTAVYYCNKDNERYVRIYDSWGQGTQVTVAS”, the “polyreactivity (PSR sort gate)” value is reported as “low polyreactivity”.
With “QVQLVESGGGLVQAGGSLRLSCAASGSTFAANAMGWYRQAPGKERELVATISYRGGSTYYADSVKGRFTISRDNAKNTVYLQMNSLKPEDTAVYYCAAKLYYAFYSRYNYWGQGTQVTVSS” the “polyreactivity (PSR sort gate)” value was “high polyreactivity”.
For “QVQLVESGGGLVQAGGSLRLSCAASGSTFAAYAMGWYRPAPGTERELVAAISASGGSTYYADSVKGRFTISRDNEKNTVYLQMNSLKPEDTAVYYCAARVFRGLGEYYWGQGTQVTVSS”, the “polyreactivity (PSR sort gate)” value was “high polyreactivity”.
For “QVQLVESGGGLVQAGGSLRLSCAASGSTFADYAMGWYRQAPGKERELVAAITSSGGDTYYADSVKGRFTISRDNAKNTVYLQMNSLKPEDTAVYYCAVVDTLYDSKYDYWGQGTQVTVSS”, the “polyreactivity (PSR sort gate)” value was “low polyreactivity”.
In the case of “QVQLVESGGGLVQAGGSLRLSCAASGSTFAEYAMGWYRQAPGKERELVATITSSGGGTYYADSVKGRFTISRDNAKNTVYLQMNSLKPEDTAVYYCGQGTQVTVSS”, the “polyreactivity (PSR sort gate)” value is reported as “low polyreactivity”.
For “QVQLVESGGGLVQAGGSLRLSCAASGSTFAFNAMGWYRPAPGKERELVASISGSGSSTYYADSVKGRFTISRDNAKNTVYLQMNSLKPEDTAVYYCAARVGARVSPPRRHGRFNYWGQGTQVTVSS”, the “polyreactivity (PSR sort gate)” value was “high polyreactivity”.
With “QVQLVESGGGLVQAGGSLRLSCAASGSTFAFNAMGWYRQAPGKERELVAGITRSGGRTYFADSVKGRFTISRDYAKNTVYLQMNSLKPEDTAVYYCAARRSGSKSGLFDYWGQGTQVTVSS” the “polyreactivity (PSR sort gate)” value was “low polyreactivity”.
For “QVQLVESGGGLVQAGGSLRLSCAASGSTFAFYAMGWYRQAAGKERELVAAITWDGGTTYYADSVKGRFTLSRDNAKNTVYLQMNSLKPEDTAVYYCASDYAWFSIYDNVPSAPGYDYWGQGTQVTVSS”, the “polyreactivity (PSR sort gate)” value was “low polyreactivity”.
For “QVQLVESGGGLVQAGGSLRLSCAASGSTFAGFTMRWYRQAPGKERELVAAITTRGGRTYYADSVKGRFTISRDNAKNTVYLQMNSLKPEDTAVYYCAAVSRYYAELMYYWGQGTQVTVSS”, the “polyreactivity (PSR sort gate)” value was “high polyreactivity”.
For “QVQLVESGGGLVQAGGSLRLSCAASGSTFAGNAMGWYRQAPGKERELVAAISSSGAGTYYADSVKGRFTISRDNAKNTVYLQMNSLKPEVTAVYYCNVGSRALRRRVRSVSFDYWGQGTQVTVSS”, the “polyreactivity (PSR sort gate)” value was “low polyreactivity”.
In the case of “QVQLVESGGGLVQAGGSLRLSCAASGSTFAGNAMGWYRQAPGKERELVAAITSGTGTHYADSVKGRFSISRDNAKNTVYLQMNSLKPEDTAVYYCAAEVWSWAGIWGYEYWGQGTQVTVSS”, the “polyreactivity (PSR sort gate)” value is reported as “low polyreactivity”.
In the case of “QVQLVESGGGLVQAGGSLRLSCAASGSTFAGNGMGWSRQAPGKERELVAGIDVTGGSTYYADSVKGRFTISRDNAKNTVYLQMNSLKPEDTAVYYCNARYVYHSSFAGFDYWGQGTQVTVSS”, the “polyreactivity (PSR sort gate)” value is reported as “low polyreactivity”.
With “QVQLVESGGGLVQAGGSLRLSCAASGSTFAGNGMGWYRQAPGKERELVAGIDVTGGSTYYADSVKGRFTISRDNAKNTVYLQMNRLKPEDTAVYYCNARYVYHSSFAGFDYWGQGTQVTVSS” the “polyreactivity (PSR sort gate)” value was “low polyreactivity”.
With “QVQLVESGGGLVQAGGSLRLSCAASGSTFAGNGMGWYRQAPGKERELVAGIDVTGGSTYYADSVKGRFTISRDNAKNTVYLQMNSLKPEDTAVYYCNARYVYHSSFAGFDYWGQGTQVTVSS” the “polyreactivity (PSR sort gate)” value was “low polyreactivity”.
For “QVQLVESGGGLVQAGGSLRLSCAASGSTFAGYAMGWYRQAPGKERELVAAISYSGGTTYYADSVKGRFTISRDNAKNTVYLQMNSLKPEDTAVFYCAARKKYKTPSYDMYYWGQGTQVTVSS”, the “polyreactivity (PSR sort gate)” value was “high polyreactivity”.
With “QVQLVESGGGLVQAGGSLRLSCAASGSTFAGYVMGWYRQAPGKERELVADISGRGGNTYYADSVKGRFTISRDNAKNTVYLQMNRLKPEDTAVYYCASILSRRYGYWGQGTQVTVSS” the “polyreactivity (PSR sort gate)” value was “high polyreactivity”.
In the case of “QVQLVESGGGLVQAGGSLRLSCAASGSTFAINAMGWYRQAPGKERELVAAISSSGSTNYADSVKGRFTISRDNAKNTVYLQMNSLKPEVTAVYYCAADRVWGTPQAYVPSQFDYWGQGTQVTVSS”, the “polyreactivity (PSR sort gate)” value is reported as “low polyreactivity”.
For “QVQLVESGGGLVQAGGSLRLSCAASGSTFAINTMGSYREAPGKERELVAAISWSGGSTYYADSVKGRFTISRDNAKNTVYLQMNSLKPEDTAVYYCAARVPGWYVPGYNVYYWGQGTQVTVSS”, the “polyreactivity (PSR sort gate)” value was “high polyreactivity”.
With “QVQLVESGGGLVQAGGSLRLSCAASGSTFAIYAMGWYRPAPGKERELVASISGGSTNYADSVKGRFTISRDNAKNTVDLQMNSLKPEDTADYYCAARGALHHWYRYDYWGQGTQVTVSS” the “polyreactivity (PSR sort gate)” value was “low polyreactivity”.
In the case of “QVQLVESGGGLVQAGGSLRLSCAASGSTFAIYAMGWYRQAPGKERELVASISGGSTNYADSVKGRFTISRDNAKNTVYLQMNSLKPEDTAVYYCAARGALHHWYRYDYWGQVTQVTVSS”, the “polyreactivity (PSR sort gate)” value is reported as “low polyreactivity”.
In the case of “QVQLVESGGGLVQAGGSLRLSCAASGSTFAPNAMGWYRQAPGKERELVAAIRTNTGSTYYADSVKGRFTISRDNAKNTVYLQMNSLKPEDTAVYYCAAVFSGFYYAYDYWGQGTQVTVSS”, the “polyreactivity (PSR sort gate)” value is reported as “high polyreactivity”.
For “QVQLVESGGGLVQAGGSLRLSCAASGSTFAPNTMGWYRQAPGKERELVARITSSDGSTTYADSVKGRFTISRDNAKNTVYLQMNSLKPEDTAVYYCAADYGRRWGYDYWGQGTQVTVSS”, the “polyreactivity (PSR sort gate)” value was “low polyreactivity”.
For “QVQLVESGGGLVQAGGSLRLSCAASGSTFAPYAMGWYRQAPGKERELVAAIRSSGGSTYYADSVKGRFTISRDNAKNTVYLQMNSLKPEDTAVYYCSDDYYTSADYVDYYYWGQGTQVTVSS”, the “polyreactivity (PSR sort gate)” value was “low polyreactivity”.
For “QVQLVESGGGLVQAGGSLRLSCAASGSTFAPYAMGWYRQAPGKERELVATISFRGGSTYYADSVKGRFTISRDNEMNTVFLEMNNLKPEDTAVYYCNAQRRYPYGYGYWGQGTQVTVSS”, the “polyreactivity (PSR sort gate)” value was “high polyreactivity”.
With “QVQLVESGGGLVQAGGSLRLSCAASGSTFAQNAMGWYRQEPGKERELVAAISRRGGSTYYADSVKGRFTISRDNAKNTVYLQMISLKPEDTAVYYCAADQPVRQLHRDDYWGQGTQVTVSS” the “polyreactivity (PSR sort gate)” value was “low polyreactivity”.
For “QVQLVESGGGLVQAGGSLRLSCAASGSTFARNAMGWYRQAPGKERELVAAITTRGSSTYYADSVKGRFTISRDNAKNTVYLQMNSLKPEDTAVYYCAARTQAPLGKYGYWGQGTQVTVSS”, the “polyreactivity (PSR sort gate)” value was “high polyreactivity”.
For “QVQLVESGGGLVQAGGSLRLSCAASGSTFARNTMGWSRQAPGKEREIVAAIDWSGGNTYYADSVKGRFTISRDNAKNTVYLQMNSLKPEDTAVYNCYDYWGQGTQVTVSS”, the “polyreactivity (PSR sort gate)” value was “low polyreactivity”.
With “QVQLVESGGGLVQAGGSLRLSCAASGSTFARYAMGWYRQAPGKDREFVAVSTSGGSTYYADSVNGRFTISRDNAKNPVYLQMNSLKPEDTAVYYCAAQSYFVFGSYRRYYGYDYWGQGTQVTVSW” the “polyreactivity (PSR sort gate)” value was “high polyreactivity”.
In the case of “QVQLVESGGGLVQAGGSLRLSCAASGSTFARYAMGWYRQAPGKERELVAAISANGGITYYADSVKGRFTISRDNAKNTVYLQMNSLKPEDTAVYYCAARKSAYRFYRMNYWGQGTQVTVSS”, the “polyreactivity (PSR sort gate)” value is reported as “high polyreactivity”.
In the case of “QVQLVESGGGLVQAGGSLRLSCAASGSTFARYAMGWYRQAPGKERELVAAISRRGGSTYYADSVKGRFTISRDNAKNTVYLQINSLKPEDTAVYYCAARYGIITSFEYDYWGQGTQVTVSS”, the “polyreactivity (PSR sort gate)” value is reported as “high polyreactivity”.
In the case of “QVQLVESGGGLVQAGGSLRLSCAASGSTFARYAMGWYRQAPGKERELVAAITWGGGGTYADSVKGRFTISRDNAKNTVSLQMNSLKPEDTAVYYCNAYGPLILFIGFRLDYWGQGTQVTVSS”, the “polyreactivity (PSR sort gate)” value is reported as “low polyreactivity”.
With “QVQLVESGGGLVQAGGSLRLSCAASGSTFARYAMVWYRQAPGKERELVAVIRSGGSTNYADSVKGRFTISRDNAKNTVYLQMNSLKPEDTAGAADQWTIHRWATYGYWGQGTQVTVSS” the “polyreactivity (PSR sort gate)” value was “low polyreactivity”.
For “QVQLVESGGGLVQAGGSLRLSCAASGSTFARYVMGWYRQAPGKDRELVAAIRSTGGRTYYADSVKGRFTISRDNAKNTVYLQMNSLKPEDTAVYYCAAAFGQYSRKRFDYWGQGTQVTVSS”, the “polyreactivity (PSR sort gate)” value was “high polyreactivity”.
With “QVQLVESGGGLVQAGGSLRLSCAASGSTFASNAMGWYRQAPGKERELVAAISRSGGTTYYADSVKGRFTISRDNAKNTVYLQMNSLKPEDTAVYYCAVYGYRFYKAVKYYYWGQGTQVTVSS” the “polyreactivity (PSR sort gate)” value was “high polyreactivity”.
With “QVQLVESGGGLVQAGGSLRLSCAASGSTFASNAMGWYRQAPGKERELVATINGDGSTNYADSVKGRFTISRDNAKNTVYLQMNSLKPEDTAVYYCNARYDYYGFWYQPYTLEVDYWGQGTQVTVSS” the “polyreactivity (PSR sort gate)” value was “low polyreactivity”.
For “QVQLVESGGGLVQAGGSLRLSCAASGSTFASNVMGWYRQAPGKERELVAAISRSGGNTYYADSVKGRFTISRDIAKNTVYLQMNSLKPEDTAVYYCAKYPFTRISYDYWGQGTLVTVSS”, the “polyreactivity (PSR sort gate)” value was “high polyreactivity”.
For “QVQLVESGGGLVQAGGSLRLSCAASGSTFASNVMGWYRQAPGKERELVAAITRGDRTHYAHSVKGRFTISRDNAKNTVYLQMNSLKPEDPAVYYCAKVTTLGRSRDYWGQGTQVTVSS”, the “polyreactivity (PSR sort gate)” value was “low polyreactivity”.
In the case of “QVQLVESGGGLVQAGGSLRLSCAASGSTFASYAMGWYRQAPGKETELVASITRRGCSTDYADSVKGRFTISRDNAKNTVDFPMNLLKPEDTAVYYCATYSYPERTGGHRTHYYWGQGTQVTVSS”, the “polyreactivity (PSR sort gate)” value is reported as “high polyreactivity”.
In the case of “QVQLVESGGGLVQAGGSLRLSCAASGSTFASYAMGWYRQAPGKQRELVAAITDSGGSTYYADSVKGRFTISRDNAKNTVYLQMNSLKPEDTAVSYCAAYGRYFSYHDYDYWGQGTQVTVSS”, the “polyreactivity (PSR sort gate)” value is reported as “low polyreactivity”.
For “QVQLVESGGGLVQAGGSLRLSCAASGSTFASYVMGGYSQAPGKERELVAGIDVRGVSTYYADSVKGRFTISRDNAKNTVYLQMNSLKPEDTAVYYCAIDNRYEMDYWGQGTQVTVSS”, the “polyreactivity (PSR sort gate)” value was “low polyreactivity”.
In the case of “QVQLVESGGGLVQAGGSLRLSCAASGSTFAVYAMGWYRQAPGKERELVAVISRGANTNYADSVKGRFTISRDNAKNTVYLQMNSLKPEDTAVYYCAAVDGYDSHDTGEYYYWGQGTQVSVSS”, the “polyreactivity (PSR sort gate)” value is reported as “low polyreactivity”.
